Kd (Log10 KD (µM)) data for three molecules are collected here from article PMC9956121.

Where a chain is given by its changes, count along the chain named. Numbers in names are those of the source.

Assay [1] has as its target acetyl-6-formylpterin-loaded MR1 C262S/hβ2m, P61769. The assay can be described thus: SPR. Conditions: chain shown with the change;; parent: est. 2.0; read off a plot.
The target of assay [2] is peptide-loaded HLA-A*02:01/hβ2m (photolabile peptide KILGFVFJV). The assay can be described thus: SPR. Conditions: chain shown with the change;; parent: est. 0.98; read off a plot.

B1: human TAPBPR (TAP binding protein, related), luminal domain R105K; K211R; R270Q (protein)
chain: KPHPAEGQWRAVDVVLDCFLAKDGAHRGALASSEDRARASLVLKQVPVLDDGSLEDFTDFQGGTLAQDDPPIIFEASVDLVQIPQAEALLHADSSGKEVTCEISKYFLQMTETTVKTAAWFMANMQVSGGGPSISLVMKTPRVTKNEALWHPTLNLPLSPQGTVRTAVEFQVMTQTQSLSFLLGSSASLDCGFSMAPGLDLISVEWRLQHRGRGQLVYSWTAGQGQAVRKGATLEPAQLGMARDASLTLPGLTIQDEGTYICQITTSLYQAQQIIQLNIQASPKVRLSLANEALLPTLICDIAGYYPLDVVVTWTREELGGSPAQVSGASFSSLRQSVAGTYSISSSLTAEPGSAGATYTCQVTHISLEEPLGASTQVVPPERR
Turning to B1, the Kd (Log10 KD (µM)) in assay [1] turned out to be 1.8.

B2: human TAPBPR (TAP binding protein, related), luminal domain S104F; K211L; R270Q (protein)
chain: B1 chain with S104F, K105R, R211L
As for B2, the Kd (Log10 KD (µM)) in assay [2] was found to be 0.09.

B3: human TAPBPR (TAP binding protein, related), luminal domain K211R; R270Q (protein)
chain: B1 chain with K105R
Consider B3, for which, in assay [2], the Kd (Log10 KD (µM)) is 0.1.
